This note sets out measurements from US7169559B2, “LDL receptor-related proteins 1 and 2 and treatment of bone or cartilage conditions” (Fonterra Corporate Research and Development Ltd., priority 2002, dated 2007).

Assay [1] concerns cultured osteoblastic cells. The assay can be described thus: osteoblast proliferation (mitogenic/osteogenic effect). The class given is cell-based, rat, mouse, and human. The method, then: (§1) Osteoblasts were isolated from 20-day old fetal rat calvariae as previously described (Cornish et al. (1999) Amer. J. Physiol-Endocrinol. Metab. 277:E779–E783). Briefly, calvariae were excised and the frontal and parietal bones, free of suture and periosteal tissue, were collected. After washing, the calvariae were treated twice with 3 mL of 1 mg/mL collagenase for 7 minutes at 37° C. After discarding the supernatants from these two digestions, the calvariae were treated a further twice with 3 mL of 2 mg/mL collagenase (30 mins, 37° C.). The supernatants of the latter two digestions were pooled, centrifuged, and the cells washed. Cells were grown to confluence and then subcultured into 24 well plates. Cells were growth arrested in minimum essential medium (MEM)/0.1% bovine serum albumin for 24 h before harvest.
(§2) The human osteoblast-like osteosarcoma cell line SaOS-2 was maintained in DMEM (GIBCO 12100-046) supplemented with 2.2 g/L NaHCO3, 10% FBS, and 10 ml/L penicillin-streptomycin (GIBCO 15140-122). Cells were plated in 75 cm^2 flasks and when confluent used for total RNA isolation or proliferation assays.

Assay [2] relates to primary rat osteoblastic cells. The assay can be described thus: endocytosis of lactoferrin observed under confocal microscopy. In kind it is cell-based. On the procedure:
as §1

In assay [3] the test system is p42/44 MAP kinase signaling pathway. The assay can be described thus: p42/44 MAP kinase signaling / phosphorylation in osteoblastic cells. The class given is cell-based.
A further assay deals with chondrocytes. Put plainly: chondrocyte mitogenesis. The class given is cell-based.
The next assay concerns osteoblast. Put plainly: osteoblast differentiation / mineralized bone nodules in long-term osteoblast cultures. In kind it is cell-based.
For another assay, the system named is primary rat osteoblasts. The assay can be described thus: apoptosis induced by serum withdrawal. The class given is cell-based. On the procedure:
as §1

The next assay concerns osteoclastogenesis. The assay can be described thus: murine bone marrow culture assay of osteoclastogenesis. In kind it is cell-based.
For another assay, the system named is mature osteoclasts. The assay can be described thus: bone-resorbing activity of mature osteoclasts. The class given is cell-based.
Assay [4] is described as follows: unilateral local hemicalvarial injection in adult mice. In kind it is in vivo.
Another assay addresses LRP-1 (Homo sapiens, UniProt Q07954). Put plainly: binding of lactoferrin to LRP-1.
Another assay addresses LRP-2/megalin (Homo sapiens, UniProt P98164). Put plainly: binding of lactoferrin to LRP-2.
A further assay deals with SaOS-2 cells. The assay can be described thus: proliferation in SaOS-2 cells. To be noted: only LRP-1 is expressed in SaOS-2 cells. The class given is cell-based, human. The method, then: as §2
The next assay relates to LRP-1-null fibroblasts. The assay can be described thus: proliferation in LRP-1-null versus LRP-1+/+ fibroblasts. The class given is cell-based.

Chain of LRP-1 (Q07954 20-4544, species assumed): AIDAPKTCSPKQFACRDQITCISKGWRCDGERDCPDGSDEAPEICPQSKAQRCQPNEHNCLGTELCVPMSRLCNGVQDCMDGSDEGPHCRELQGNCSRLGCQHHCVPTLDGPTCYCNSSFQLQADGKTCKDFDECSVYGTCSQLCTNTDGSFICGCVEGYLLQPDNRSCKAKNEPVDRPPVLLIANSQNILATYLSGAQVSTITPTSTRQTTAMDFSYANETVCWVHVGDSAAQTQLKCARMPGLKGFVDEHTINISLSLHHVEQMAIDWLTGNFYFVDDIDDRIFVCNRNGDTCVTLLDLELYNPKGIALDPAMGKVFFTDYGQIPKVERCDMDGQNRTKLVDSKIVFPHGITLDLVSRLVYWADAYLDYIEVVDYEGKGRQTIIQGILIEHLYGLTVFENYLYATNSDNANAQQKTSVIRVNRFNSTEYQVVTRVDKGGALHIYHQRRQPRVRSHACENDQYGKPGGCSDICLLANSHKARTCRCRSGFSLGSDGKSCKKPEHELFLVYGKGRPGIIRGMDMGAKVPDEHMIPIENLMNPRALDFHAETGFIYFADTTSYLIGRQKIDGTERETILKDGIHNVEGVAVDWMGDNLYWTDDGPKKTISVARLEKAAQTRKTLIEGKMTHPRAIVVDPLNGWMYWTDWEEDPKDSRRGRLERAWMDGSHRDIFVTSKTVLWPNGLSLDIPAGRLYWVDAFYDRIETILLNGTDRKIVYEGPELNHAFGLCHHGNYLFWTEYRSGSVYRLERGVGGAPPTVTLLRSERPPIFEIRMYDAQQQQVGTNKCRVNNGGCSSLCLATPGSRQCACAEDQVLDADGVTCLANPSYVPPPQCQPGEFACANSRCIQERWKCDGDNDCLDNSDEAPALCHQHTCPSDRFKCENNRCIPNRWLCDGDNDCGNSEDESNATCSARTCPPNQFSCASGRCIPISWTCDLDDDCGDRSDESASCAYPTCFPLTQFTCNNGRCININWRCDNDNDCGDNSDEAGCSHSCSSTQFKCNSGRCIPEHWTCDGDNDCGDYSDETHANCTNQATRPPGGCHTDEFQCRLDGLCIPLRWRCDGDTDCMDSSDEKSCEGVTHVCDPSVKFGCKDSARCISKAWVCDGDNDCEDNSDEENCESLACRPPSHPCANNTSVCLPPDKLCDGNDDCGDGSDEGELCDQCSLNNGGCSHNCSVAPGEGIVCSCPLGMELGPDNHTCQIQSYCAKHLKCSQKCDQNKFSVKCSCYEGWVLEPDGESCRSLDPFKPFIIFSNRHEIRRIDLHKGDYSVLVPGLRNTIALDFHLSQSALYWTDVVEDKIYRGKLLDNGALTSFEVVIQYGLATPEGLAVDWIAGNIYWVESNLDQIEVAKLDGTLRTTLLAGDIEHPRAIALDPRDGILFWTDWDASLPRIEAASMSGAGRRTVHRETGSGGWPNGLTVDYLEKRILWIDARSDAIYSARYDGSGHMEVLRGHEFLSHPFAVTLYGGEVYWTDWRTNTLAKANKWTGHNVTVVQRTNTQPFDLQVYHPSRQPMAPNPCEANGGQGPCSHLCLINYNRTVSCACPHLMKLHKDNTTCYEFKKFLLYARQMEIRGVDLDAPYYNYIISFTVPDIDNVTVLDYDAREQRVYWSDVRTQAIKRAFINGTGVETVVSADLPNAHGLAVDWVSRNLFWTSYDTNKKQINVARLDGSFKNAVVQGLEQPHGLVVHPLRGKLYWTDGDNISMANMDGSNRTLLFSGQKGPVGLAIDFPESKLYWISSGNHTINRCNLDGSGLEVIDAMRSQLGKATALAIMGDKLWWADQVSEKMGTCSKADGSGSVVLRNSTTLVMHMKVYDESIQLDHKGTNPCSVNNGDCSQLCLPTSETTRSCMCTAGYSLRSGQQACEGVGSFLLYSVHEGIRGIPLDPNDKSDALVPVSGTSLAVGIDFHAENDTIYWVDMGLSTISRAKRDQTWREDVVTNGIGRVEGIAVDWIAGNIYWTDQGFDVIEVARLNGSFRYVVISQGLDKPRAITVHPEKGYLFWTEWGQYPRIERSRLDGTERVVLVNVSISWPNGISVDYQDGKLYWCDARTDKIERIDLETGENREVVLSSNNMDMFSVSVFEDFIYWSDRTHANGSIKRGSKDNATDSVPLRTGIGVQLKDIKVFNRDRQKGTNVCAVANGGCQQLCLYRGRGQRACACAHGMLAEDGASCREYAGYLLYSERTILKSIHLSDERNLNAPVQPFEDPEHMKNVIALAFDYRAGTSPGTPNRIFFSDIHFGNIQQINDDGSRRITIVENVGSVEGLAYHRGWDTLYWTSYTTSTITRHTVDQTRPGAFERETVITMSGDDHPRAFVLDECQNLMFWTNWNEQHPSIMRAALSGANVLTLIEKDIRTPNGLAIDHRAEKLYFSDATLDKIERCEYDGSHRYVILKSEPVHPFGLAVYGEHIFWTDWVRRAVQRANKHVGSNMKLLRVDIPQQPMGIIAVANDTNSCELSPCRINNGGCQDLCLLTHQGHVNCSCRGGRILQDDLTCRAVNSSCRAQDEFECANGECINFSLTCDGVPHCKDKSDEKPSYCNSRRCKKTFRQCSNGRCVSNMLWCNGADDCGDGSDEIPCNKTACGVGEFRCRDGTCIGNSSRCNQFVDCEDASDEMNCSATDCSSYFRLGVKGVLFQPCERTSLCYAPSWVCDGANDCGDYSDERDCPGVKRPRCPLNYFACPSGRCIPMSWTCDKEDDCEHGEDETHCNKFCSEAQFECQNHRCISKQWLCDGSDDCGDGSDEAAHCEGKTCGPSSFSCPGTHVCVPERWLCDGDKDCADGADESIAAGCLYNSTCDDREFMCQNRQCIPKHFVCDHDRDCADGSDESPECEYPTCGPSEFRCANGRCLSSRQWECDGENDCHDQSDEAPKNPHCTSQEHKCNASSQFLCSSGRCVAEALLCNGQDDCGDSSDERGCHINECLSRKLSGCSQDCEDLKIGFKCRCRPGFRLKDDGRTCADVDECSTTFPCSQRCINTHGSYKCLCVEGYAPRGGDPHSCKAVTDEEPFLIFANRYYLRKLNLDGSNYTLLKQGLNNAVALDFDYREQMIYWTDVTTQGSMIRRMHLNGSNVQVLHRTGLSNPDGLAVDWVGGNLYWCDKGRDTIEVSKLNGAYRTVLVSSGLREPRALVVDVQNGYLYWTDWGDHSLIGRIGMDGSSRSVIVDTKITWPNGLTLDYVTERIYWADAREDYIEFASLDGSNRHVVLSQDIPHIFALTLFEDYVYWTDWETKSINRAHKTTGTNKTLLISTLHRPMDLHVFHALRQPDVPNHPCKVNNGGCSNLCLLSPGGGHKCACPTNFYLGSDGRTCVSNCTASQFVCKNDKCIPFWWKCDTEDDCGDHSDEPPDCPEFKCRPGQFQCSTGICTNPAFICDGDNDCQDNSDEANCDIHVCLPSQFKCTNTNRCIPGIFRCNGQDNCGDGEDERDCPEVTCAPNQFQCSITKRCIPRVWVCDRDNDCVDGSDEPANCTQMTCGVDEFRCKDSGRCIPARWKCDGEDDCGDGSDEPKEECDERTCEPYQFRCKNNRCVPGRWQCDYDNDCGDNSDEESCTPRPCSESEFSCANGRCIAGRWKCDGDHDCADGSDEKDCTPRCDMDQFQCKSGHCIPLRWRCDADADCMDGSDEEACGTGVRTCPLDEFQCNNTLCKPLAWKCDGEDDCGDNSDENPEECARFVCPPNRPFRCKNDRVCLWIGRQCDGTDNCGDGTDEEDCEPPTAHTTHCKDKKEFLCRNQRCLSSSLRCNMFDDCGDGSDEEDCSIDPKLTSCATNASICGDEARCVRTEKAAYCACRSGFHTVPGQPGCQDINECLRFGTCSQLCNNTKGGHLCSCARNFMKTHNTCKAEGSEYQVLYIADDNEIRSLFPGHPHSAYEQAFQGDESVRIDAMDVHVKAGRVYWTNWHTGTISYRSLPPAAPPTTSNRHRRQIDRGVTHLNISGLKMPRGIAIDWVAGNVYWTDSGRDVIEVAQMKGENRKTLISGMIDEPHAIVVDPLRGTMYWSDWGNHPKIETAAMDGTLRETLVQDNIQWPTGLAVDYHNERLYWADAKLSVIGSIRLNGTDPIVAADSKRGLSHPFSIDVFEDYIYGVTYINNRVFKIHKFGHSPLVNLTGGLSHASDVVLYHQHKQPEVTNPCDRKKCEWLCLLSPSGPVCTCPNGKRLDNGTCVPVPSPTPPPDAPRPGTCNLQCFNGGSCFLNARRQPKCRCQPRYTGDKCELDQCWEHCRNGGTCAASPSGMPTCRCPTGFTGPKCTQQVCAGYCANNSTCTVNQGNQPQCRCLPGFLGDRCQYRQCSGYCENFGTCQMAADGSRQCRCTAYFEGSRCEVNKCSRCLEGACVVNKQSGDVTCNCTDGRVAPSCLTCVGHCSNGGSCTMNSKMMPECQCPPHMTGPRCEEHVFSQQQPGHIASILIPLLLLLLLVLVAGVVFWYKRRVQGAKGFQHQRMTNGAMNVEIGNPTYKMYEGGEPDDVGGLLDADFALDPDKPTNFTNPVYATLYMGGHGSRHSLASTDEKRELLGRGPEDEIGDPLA

B1: RAP: the LRP-1/2-specific inhibitor, receptor-associated protein (RAP) (protein, UniProt P30533 35-357, looked up)
Alpha-2-macroglobulin …: YSREKNQPKPSPKRESGEEFRMEKLNQLWEKAQRLHLPPVRLAELHADLKIQERDELAWKKLKLDGLDEDGEKEARLIRNLNVILAKYGLDGKKDARQVTSNSLSGTQEDGLDDPRLEKLWHKAKTSGKFSGEELDKLWREFLHHKEKVHEYNVLLETLSRTEEIHENVISPSDLSDIKGSVLHSRHTELKEKLRSINQGLDRLRRVSHQGYSTEAEFEEPRVIDLWDLAQSANLTDKELEAFREELKHFEAKIEKHNHYQKQLEIAHEKLRHAESVGDGERVSRSREKHALLEGRTKELGYTVKKHLQDLSGRISRARHNEL
As to B1, the “effect on lactoferrin-induced osteoblast proliferation” value in assay [1] (in the presence of lactoferrin) is “blocked”. Besides, the “effect on endocytosis of lactoferrin” value in assay [2] (primary rat osteoblastic cells) was “abrogates this process”. The “effect on lactoferrin-induced MAP kinase phosphorylation” value in [3] (in the presence of lactoferrin) was “blocked”.

B2: Lactoferrin: an 80 kDa glycoprotein present in milk and epithelial secretions; osteoblast growth factor present in fractionated bovine milk (protein, UniProt P24627 20-708, looked up)
Lactotransferrin: APRKNVRWCTISQPEWFKCRRWQWRMKKLGAPSITCVRRAFALECIRAIAEKKADAVTLDGGMVFEAGRDPYKLRPVAAEIYGTKESPQTHYYAVAVVKKGSNFQLDQLQGRKSCHTGLGRSAGWIIPMGILRPYLSWTESLEPLQGAVAKFFSASCVPCIDRQAYPNLCQLCKGEGENQCACSSREPYFGYSGAFKCLQDGAGDVAFVKETTVFENLPEKADRDQYELLCLNNSRAPVDAFKECHLAQVPSHAVVARSVDGKEDLIWKLLSKAQEKFGKNKSRSFQLFGSPPGQRDLLFKDSALGFLRIPSKVDSALYLGSRYLTTLKNLRETAEEVKARYTRVVWCAVGPEEQKKCQQWSQQSGQNVTCATASTTDDCIVLVLKGEADALNLDGGYIYTAGKCGLVPVLAENRKSSKHSSLDCVLRPTEGYLAVAVVKKANEGLTWNSLKDKKSCHTAVDRTAGWNIPMGLIVNQTGSCAFDEFFSQSCAPGADPKSRLCALCAGDDQGLDKCVPNSKEKYYGYTGAFRCLAEDVGDVAFVKNDTVWENTNGESTADWAKNLNREDFRLLCLDGTRKPVTEAQSCHLAVAPNHAVVSRSDRAAHVKQVLLHQQALFGKNGKNCPDKFCLFKSETKNLLFNDNTECLAKLGGRPTYEEYLGTEYVTAIANLKKCSTSPLLEACAFLTR
As for B2, the “proliferation of cultured osteoblastic cells” value in [1] (cells of rat, mouse, and human origin) is “stimulates proliferation of cultured osteoblastic cells of rat, mouse, and human origin potently and in a dose-dependent manner”. Also, in the assay with chondrocytes, the mitogenic to chondrocytes entry is given as “mitogenic to chondrocytes”. Moreover, the osteoblast differentiation result in the assay on osteoblast is given as “capable of inducing osteoblast differentiation”. The “number of mineralized bone nodules” value with osteoblast (long-term osteoblast cultures) was “significantly increase”. In addition, in the assay with primary rat osteoblasts, the “apoptosis induced by serum withdrawal” value is “inhibits apoptosis”. Besides, the osteoclastogenesis result with osteoclastogenesis is “strongly inhibits osteoclastogenesis”. In the assay on mature osteoclasts, the “bone-resorbing activity of mature osteoclasts” value is reported as “does not affect”. For the same molecule, in assay [4], the bone area entry was “dose-dependent and substantial increases”; the “indices of bone formation” value is “dose-dependent and substantial increases”. For the same molecule, the “binding to LRP-1” value with LRP-1 is “has been found to bind”. Moreover, in the assay with LRP-2/megalin, the “binding to LRP-2/megalin” value is recorded as “has been found to bind”. Moreover, the “endocytosis by primary rat osteoblastic cells” value in assay [2] is listed as “is endocytosed”. Moreover, the “activation of p42/44 MAP kinase signaling pathway” value in assay [3] (osteoblastic cells) was “activates the p42/44 MAP kinase signaling pathway”. Besides, the “proliferation in SaOS-2 cells” value in the assay on SaOS-2 cells is listed as “induces proliferation”. Further, in the assay on LRP-1-null fibroblasts, the “proliferation in LRP-1-null fibroblasts compared with LRP-1+/+ cells” value was “substantially less marked”.
